Experimental data reported in patent publication US20220396635A1 (UNIVERSIT T STUTTGART, published 2022).
Read-outs that look alike come from different tables or passages of the source.

Legend:
EGFR [1] = biological target: T1, EGFR (UniProt P00533 25-1210, limits assumed); assay: cell-based or functional assay
EGFR [2] = biological target: T1, EGFR; assay: flow cytometry, serial dilution on FaDu cells (EGFR-expressing), PE anti-human Fc detection
Description: (§1) Binding analysis of the trivalent, bispecific antibodies was performed by flow cytometry using tumor cell lines with different EGFR-expression levels (FIG. 20) (Table 12). Adherent cells were washed with PBS and shortly trypsinized at 37° C. Trypsin was quenched with FCS-containing medium and removed by centrifugation (500×g, 5 min.). Target cells (FaDu, LIM1215, SKBR-3, T-47-D, MCF-7 and Jurkat cells) at 1×10⁵ cells/well were incubated with a serial dilution of trivalent, bispecific antibodies for 1 h at 4° C. After removing excess of recombinant protein by washing with PBA (PBS, 2% FBS, and 0.02% sodium azide), bound protein was detected using PE-conjugated anti-human Fc mAb (Jackson ImmunoResearch Laboratories Inc). Fluorescence was measured using MACSquant VYB (Miltenyi Biotec) and data were analyzed using FlowJo (Tree Star). Relative median fluorescence intensities (MFI) were calculated as followed: relative MFI=((MFIₛₐₘₚₗₑ-(MFIdetection-MFIcells))/MFIcells).

CD3 [3] = biological target: T2, CD3 (UniProt P07766 23-207); assay: flow cytometry, serial dilution on Jurkat cells (CD3-expressing), PE anti-human Fc detection
T2 construct: whole, on cells; on cells it stands in the TCR/CD3 complex; also called CD3 on Jurkat cells
Description: as §1

EGFR [4] = biological target: T1, EGFR; assay: flow cytometry, serial dilution on MCF-7 cells (EGFR-expressing), PE anti-human Fc detection
Description: as §1

EGFR [5] = biological target: T1, EGFR; assay: flow cytometry, serial dilution on SKBR-3 cells (EGFR-expressing), PE anti-human Fc detection
Description: as §1

EGFR [6] = biological target: T1, EGFR; assay: flow cytometry, serial dilution on T-47-D cells (EGFR-expressing), PE anti-human Fc detection
Description: as §1

EGFR [7] = biological target: T1, EGFR; assay: flow cytometry, serial dilution on LIM1215 cells (EGFR-expressing), PE anti-human Fc detection
Description: as §1

CEA [8] = biological target: T3, CEA (UniProt P06731 35-685); assay: cell-based or functional assay
T3 sequence (looked up): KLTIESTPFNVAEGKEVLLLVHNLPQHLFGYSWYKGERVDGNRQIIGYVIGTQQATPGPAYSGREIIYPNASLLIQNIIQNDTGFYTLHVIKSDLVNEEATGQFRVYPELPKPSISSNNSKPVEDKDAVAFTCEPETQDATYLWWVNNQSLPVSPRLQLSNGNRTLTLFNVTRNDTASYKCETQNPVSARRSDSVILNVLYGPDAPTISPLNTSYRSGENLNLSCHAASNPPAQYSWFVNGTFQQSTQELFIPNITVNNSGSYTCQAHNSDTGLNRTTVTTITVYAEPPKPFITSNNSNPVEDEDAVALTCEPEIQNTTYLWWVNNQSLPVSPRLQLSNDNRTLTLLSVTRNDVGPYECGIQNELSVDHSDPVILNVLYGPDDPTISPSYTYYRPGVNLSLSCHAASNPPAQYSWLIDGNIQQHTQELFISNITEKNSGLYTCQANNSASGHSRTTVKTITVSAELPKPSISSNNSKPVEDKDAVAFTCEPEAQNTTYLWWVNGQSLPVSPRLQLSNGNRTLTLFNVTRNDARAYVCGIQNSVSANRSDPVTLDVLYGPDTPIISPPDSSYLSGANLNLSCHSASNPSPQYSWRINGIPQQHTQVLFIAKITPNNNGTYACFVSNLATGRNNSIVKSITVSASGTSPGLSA

CEA [9] = biological target: T3, CEA; assay: cell-based or functional assay; remark: listed apart in the source
CD3 [10] = biological target: T2, CD3; assay: flow cytometry, serial dilution on Jurkat cells (CD3-expressing), PE anti-human Fc detection; remark: listed apart in the source
Description: (§2) Binding of trivalent, bispecific fusion proteins to CEA-expressing (LIM1215) and CD3-expressing (Jurkat) cell lines was analyzed by flow cytometry. 2×10⁵ cells/well were incubated with a serial dilution of trivalent, bispecific antibodies for 1 h at 4° C. followed by detection using a PE-conjugated anti-human Fc antibody (Jackson ImmunoResearch Laboratories Inc). […] Regarding the CEA-expressing cell line LIM1215, the trivalent, bispecific antibodies bound with EC₅₀ values in the nanomolar range (FIG. 16A) (Table 9).

CEA [11] = biological target: T3, CEA; assay: flow cytometry, serial dilution on LIM1215 cells (CEA-expressing), PE anti-human Fc detection
Description: as §2

B1: scDb/scFv-Fc (1-2)+1, trivalent bispecific anti-EGFRxanti-CD3 (bispecific antibody)
chain 1: EVQLVESGGGLVQPGGSLRLSCAASGFSLTNYGVHWVRQAPGKGLEWLGVIWSGGNTDYNTPFTSRFTISRDNSKNTLYLQMNSLRAEDTAVYYCARALTYYDYEFAYWGQGTTVTVSSGGGGSDIQMTQSPSSLSASVGDRVTITCRASQDIRNYLNWYQQKPGKAPKLLIYYTSRLHSGVPSRFSGSGSGTDFTFTISSLQPEDIATYYCQQGNTLPWTFGQGTKLEIKRGGGGSGGGGSGGGGSQVQLVQSGAEVKKPGSSVKVSCKASGGTFSGYTMNWVRQAPGQGLEWMGLINPYKGVSTYNGKFKDRVTITADKSTSTAYMELSSLRSEDTAVYYCARSGYYGDSDWYFDVWGQGTLVTVSSGGGGSDIQLTQSPSFLSASVGDRVTITCRASQSIGTNIHWYQQKPGKAPKLLIKYASESISGVPSRFSGSGSGTEFTLTISSLQPEDFATYYCQQNNNWPTTFGAGTKLEIKRAAADKTHTCPPCPAPPVAGPSVFLFPPKPKDTLMISRTPEVTCVVVDVSHEDPEVKFNWYVDGVEVHNAKTKPREEQYNSTYRVVSVLTVLHQDWLNGKEYKCKVSNKGLPSSIEKTISKAKGQPREPQVCTLPPSRDELTKNQVSLSCAVKGFYPSDIAVEWESNGQPENNYKTTPPVLDSDGSFFLVSKLTVDKSRWQQGNVFSCSVMHEALHNHYTQKSLSLSPGK
chain 2: EVQLVESGGGLVQPGGSLRLSCAASGFSLTNYGVHWVRQAPGKGLEWLGVIWSGGNTDYNTPFTSRFTISRDNSKNTLYLQMNSLRAEDTAVYYCARALTYYDYEFAYWGQGTTVTVSSGGGGSGGGGSGGGGSDIQLTQSPSFLSASVGDRVTITCRASQSIGTNIHWYQQKPGKAPKLLIKYASESISGVPSRFSGSGSGTEFTLTISSLQPEDFATYYCQQNNNWPTTFGAGTKLEIKRAAADKTHTCPPCPAPPVAGPSVFLFPPKPKDTLMISRTPEVTCVVVDVSHEDPEVKFNWYVDGVEVHNAKTKPREEQYNSTYRVVSVLTVLHQDWLNGKEYKCKVSNKGLPSSIEKTISKAKGQPREPQVYTLPPCRDELTKNQVSLWCLVKGFYPSDIAVEWESNGQPENNYKTTPPVLDSDGSFFLYSKLTVDKSRWQQGNVFSCSVMHEALHNHYTQKSLSLSPGK
notes: also called scDbhu225xhuU3-Fc(hole)Δab + scFvhu225-Fc(knob)Δab
EC50 of PBMC cytotoxicity on FaDu cells, E:T 5:1 (EGFR [1]): 0.026 nM
EC50 of PBMC cytotoxicity on SKBR-3 cells, E:T 5:1 (EGFR [1]): 0.126 nM
EC50 (EGFR [2]): 1.1 nM
EC50 (CD3 [3]): 9.6 nM
EC50 (EGFR [4]): 0.03 nM
EC50 (EGFR [5]): 0.09 nM
EC50 (EGFR [6]): 0.02 nM
EC50 (EGFR [7]): 0.2 nM

B2: scDb/Fab-Fc (1-2)+1, trivalent bispecific anti-EGFRxanti-CD3 (bispecific antibody)
chain: B1 chain 1
heavy: EVQLVESGGGLVQPGGSLRLSCAASGFSLTNYGVHWVRQAPGKGLEWLGVIWSGGNTDYNTPFTSRFTISRDNSKNTLYLQMNSLRAEDTAVYYCARALTYYDYEFAYWGQGTTVTVSSASTKGPSVFPLAPSSKSTSGGTAALGCLVKDYFPEPVTVSWNSGALTSGVHTFPAVLQSSGLYSLSSVVTVPSSSLGTQTYICNVNHKPSNTKVDKKVEPKSCGTDKTHTCPPCPAPPVAGPSVFLFPPKPKDTLMISRTPEVTCVVVDVSHEDPEVKFNWYVDGVEVHNAKTKPREEQYNSTYRVVSVLTVLHQDWLNGKEYKCKVSNKGLPSSIEKTISKAKGQPREPQVYTLPPCRDELTKNQVSLWCLVKGFYPSDIAVEWESNGQPENNYKTTPPVLDSDGSFFLYSKLTVDKSRWQQGNVFSCSVMHEALHNHYTQKSLSLSPGK
light: DIQLTQSPSFLSASVGDRVTITCRASQSIGTNIHWYQQKPGKAPKLLIKYASESISGVPSRFSGSGSGTEFTLTISSLQPEDFATYYCQQNNNWPTTFGAGTKLEIKRTVAAPSVFIFPPSDEQLKSGTASVVCLLNNFYPREAKVQWKVDNALQSGNSQESVTEQDSKDSTYSLSSTLTLSKADYEKHKVYACEVTHQGLSSPVTKSFNRGEC
notes: also called scDbhu225xhuU3-Fc(hole)Δab + Fdhu225-Fc(knob)Δab + VLhu225-CLκ
EC50 of PBMC cytotoxicity on FaDu cells, E:T 5:1 (EGFR [1]): 0.05 nM
EC50 of PBMC cytotoxicity on SKBR-3 cells, E:T 5:1 (EGFR [1]): 0.209 nM
EC50 (EGFR [2]): 0.2 nM
EC50 (CD3 [3]): 1 nM
EC50 (EGFR [4]): 0.04 nM
EC50 (EGFR [5]): 0.1 nM
EC50 (EGFR [6]): 0.03 nM
EC50 (EGFR [7]): 0.2 nM

B3: scDb/Fab-Fc (2-1)+1, trivalent bispecific anti-CEAxanti-CD3 (bispecific antibody, human IgG1, kappa)
chain: QVQLVQSGAEVKKPGSSVKVSCKASGGTFSGYTMNWVRQAPGQGLEWMGLINPYKGVSTYNGKFKDRVTITADKSTSTAYMELSSLRSEDTAVYYCARSGYYGDSDWYFDVWGQGTLVTVSSGGGGSDIELTQSPAIMSASPGEKVTITCSASSSVSYMHWFQQKPGTSPKLWIYSTSNLASGVPARFSGSGSGTSYSLTISRMEAEDAATYYCQQRSSYPLTFGAGTKLELKRGGGGSGGGGSGGGGSQVKLQQSGAELVRSGTSVKLSCTASGFNIKDSYMHWLRQGPEQGLEWIGWIDPENGDTEYAPKFQGKATFTTDTSSNTAYLQLSSLTSEDTAVYYCNEGTPTGPYYFDYWGQGTTVTVSSGGGGSDIQMTQSPSSLSASVGDRVTITCRASQDIRNYLNWYQQKPGKAPKLLIYYTSRLHSGVPSRFSGSGSGTDFTFTISSLQPEDIATYYCQQGNTLPWTFGQGTKLEIKRAAADKTHTCPPCPAPPVAGPSVFLFPPKPKDTLMISRTPEVTCVVVDVSHEDPEVKFNWYVDGVEVHNAKTKPREEQYNSTYRVVSVLTVLHQDWLNGKEYKCKVSNKGLPSSIEKTISKAKGQPREPQVCTLPPSRDELTKNQVSLSCAVKGFYPSDIAVEWESNGQPENNYKTTPPVLDSDGSFFLVSKLTVDKSRWQQGNVFSCSVMHEALHNHYTQKSLSLSPGK
heavy: QVKLQQSGAELVRSGTSVKLSCTASGFNIKDSYMHWLRQGPEQGLEWIGWIDPENGDTEYAPKFQGKATFTTDTSSNTAYLQLSSLTSEDTAVYYCNEGTPTGPYYFDYWGQGTTVTVSSASTKGPSVFPLAPSSKSTSGGTAALGCLVKDYFPEPVTVSWNSGALTSGVHTFPAVLQSSGLYSLSSVVTVPSSSLGTQTYICNVNHKPSNTKVDKKVEPKSCDKTHTCPPCPAPPVAGPSVFLFPPKPKDTLMISRTPEVTCVVVDVSHEDPEVKFNWYVDGVEVHNAKTKPREEQYNSTYRVVSVLTVLHQDWLNGKEYKCKVSNKGLPSSIEKTISKAKGQPREPQVYTLPPCRDELTKNQVSLWCLVKGFYPSDIAVEWESNGQPENNYKTTPPVLDSDGSFFLYSKLTVDKSRWQQGNVFSCSVMHEALHNHYTQKSLSLSPGK
light: DIELTQSPAIMSASPGEKVTITCSASSSVSYMHWFQQKPGTSPKLWIYSTSNLASGVPARFSGSGSGTSYSLTISRMEAEDAATYYCQQRSSYPLTFGAGTKLELKRRTVAAPSVFIFPPSDEQLKSGTASVVCLLNNFYPREAKVQWKVDNALQSGNSQESVTEQDSKDSTYSLSSTLTLSKADYEKHKVYACEVTHQGLSSPVTKSFNRGEC
notes: also called scDbhuU3xCEA-Fc(hole)Δab + VHCEA-CH1-Fc(knob)Δab + VLCEA-CLκ
EC50 of PBMC cytotoxicity on LIM1215 cells, E:T 10:1 (CEA [8]): 1.2 nM
EC50 of IL-2 release, PBMCs co-cultured with LIM1215 cells (CEA [9]): 3.5 nM
EC50 (CD3 [10]): 6.1 nM
EC50 (CEA [11]): 2.1 nM
